Measured values: patent US20180186891A1 (PHILOGEN, published 2018)

Target: T1, biotinylated Mouse FAP extracellular domain (mouse, UniProt P97321 26-761, biotinylated (site not stated))
T1 construct: extracellular domain; also called murine antigen
T1 sequence (looked up): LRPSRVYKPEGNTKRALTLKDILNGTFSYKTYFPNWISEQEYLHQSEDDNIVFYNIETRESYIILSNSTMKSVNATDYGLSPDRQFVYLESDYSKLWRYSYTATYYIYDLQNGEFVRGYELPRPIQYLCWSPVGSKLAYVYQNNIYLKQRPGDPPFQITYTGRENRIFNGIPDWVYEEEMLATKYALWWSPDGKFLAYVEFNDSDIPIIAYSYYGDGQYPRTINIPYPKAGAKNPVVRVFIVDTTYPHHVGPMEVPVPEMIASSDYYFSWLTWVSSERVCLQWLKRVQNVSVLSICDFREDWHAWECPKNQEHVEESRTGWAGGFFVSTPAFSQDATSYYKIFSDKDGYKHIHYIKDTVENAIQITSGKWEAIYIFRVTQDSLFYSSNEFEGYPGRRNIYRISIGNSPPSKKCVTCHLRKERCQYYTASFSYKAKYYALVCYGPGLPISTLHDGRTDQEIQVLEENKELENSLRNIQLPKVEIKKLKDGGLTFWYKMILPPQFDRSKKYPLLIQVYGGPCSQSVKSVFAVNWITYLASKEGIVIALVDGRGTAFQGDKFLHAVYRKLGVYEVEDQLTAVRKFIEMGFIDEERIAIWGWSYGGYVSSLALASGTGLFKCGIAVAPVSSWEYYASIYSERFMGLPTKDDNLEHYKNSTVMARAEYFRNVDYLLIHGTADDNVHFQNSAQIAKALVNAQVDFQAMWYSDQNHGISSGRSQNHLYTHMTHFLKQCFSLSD
Test: ELISA, biotinylated FAP extracellular domain on streptavidin strips, detection with anti-Myc 9E10
Procedure: ELISA: Streptawell High Bind strips (Roche) were coated with biotinylated Human or Mouse FAP extracellular domain at 100 nM. Cross reactivity with human and murine antigen of the anti-FAP F5 antibody was assessed by detection with the anti-Myc antibody 9E10 and an HRP-conjugated anti-Murine Fc antibody (Sigma). Calorimetric detection of antibody-antigen binding was performed using BM-Blue POD soluble substrate (Roche).

binding result: binds
B1: antibody F5 (in scFv format) (scFv, V domains shown)
VH: EVQLLESGGGLVQPGGSLRLSCAASGFTFSPAYMSWVRQAPGKGLEWVSAISGSGGSTYYADSVKGRFTISRDNSKNTLYLQMNSLRAEDTAVYYCAKGWRAFDYWGQGTLVTVSS
VL: EIVLTQSPGTLSLSPGERATLSCRASQSVSRNYLAWYQQKPGQAPRLLIYGASSRATGIPDRFSGSGSGTDFTLTISRLEPEDFAVYYCQQSLGYPPTFGQGTKVEIK
notes: Tested as a single-chain Fv; Detection with anti-Myc antibody 9E10 implies a myc tag; also called F5 antibody; anti-FAP F5 antibody
